This is an account of results in patent US20240270846A1 (published 2024).

B1: GLS3000 N53I one-arm antibody (antibody, human IgG1, kappa, L234A L235A, N297A, name in Kabat numbering)
light: DIVMTQSPLSLPVTPGEPASISCRSSQSLVHSNRNTYLHWYQQKPGQAPRLLIYKVSIRFSGVPDRFSGSGSGTDFTLKISRVEAEDVGVYYCGQGTQVPYTFGQGTKLEIKRTVAAPSVFIFPPSDEQLKSGTASVVCLLNNFYPREAKVQWKVDNALQSGNSQESVTEQDSKDSTYSLSSTLTLSKADYEKHKVYACEVTHQGLSSPVTKSFNRGEC
heavy: QVQLVESGGGVVQPGRSLRLSCAASGFTFSNAWMHWVRQAPGKGLEWVAQIKAKSNNYATYYAESVKGRFTISRDDSKNSLYLQMNSLKTEDTAVYYCRYVHYGAYYGVDAWGQGTTVTVSSASTKGPSVFPLAPSSKSTSGGTAALGCLVKDYFPEPVTVSWNSGALTSGVHTFPAVLQSSGLYSLSSVVTVPSSSLGTQTYICNVNHKPSNTKVDKKVEPKSCDKTHTCPPCPAPEAAGGPSVFLFPPKPKDTLMISRTPEVTCVVVDVSHEDPEVKFNWYVDGVEVHNAKTKPREEQYASTYRVVSVLTVLHQDWLNGKEYKCKVSNKALPAPIEKTISKAKGQPREPQVYTLPPSRCELTKNQVSLSCAVKGFYPSDIAVEWESNGQPENNYKTTPPVLDSDGSFFLVSKLTVDKSRWQQGNVFSCSVMHEALHNHYTQKSLSLSPDYKDDDDK
chain: EPKSSDKTHTCPPCPAPELLGGPSVFLFPPKPKDTLMISRTPEVTCVVVDVSHEDPEVKFNWYVDGVEVHNAKTKPREEQYNSTYRVVSVLTVLHQDWLNGKEYKCKVSNKALPAPIEKTISKAKGQPREPQVCTLPPSRDELTKNQVSLWCLVKGFYPSDIAVEWESNGQPENNYKTTPPVLDSDGSFFLYSKLTVDKSRWQQGNVFSCSVMHEALHNRYTQKSLSLSP
B2: GLS3000 P95S one-arm antibody (antibody, human IgG1, kappa, L234A L235A, N297A, name in Kabat numbering)
light: B1 light with I58N, P100S
heavy: B1 heavy
chain: B1 chain
B3: GLS3000 N53W one-arm antibody (antibody, human IgG1, kappa, L234A L235A, N297A, name in Kabat numbering)
light: B1 light with I58W
heavy: B1 heavy
chain: B1 chain
B4: GLS3000 N53S one-arm antibody (antibody, human IgG1, kappa, L234A L235A, N297A, name in Kabat numbering)
light: B1 light with I58S
heavy: B1 heavy
chain: B1 chain
B5: GLS3000 N53T one-arm antibody (antibody, human IgG1, kappa, L234A L235A, N297A, name in Kabat numbering)
light: B1 light with I58T
heavy: B1 heavy
chain: B1 chain
B6: GLS3000 Q90D one-arm antibody (antibody, human IgG1, kappa, L234A L235A, N297A, name in Kabat numbering)
light: B1 light with I58N, Q95D
heavy: B1 heavy
chain: B1 chain
B7: GLS3000 N53K one-arm antibody (antibody, human IgG1, kappa, L234A L235A, N297A, name in Kabat numbering)
light: B1 light with I58K
heavy: B1 heavy
chain: B1 chain
B8: GLS3000 N53V one-arm antibody (antibody, human IgG1, kappa, L234A L235A, N297A, name in Kabat numbering)
light: B1 light with I58V
heavy: B1 heavy
chain: B1 chain
B9: GLS3000 N53Y one-arm antibody (antibody, human IgG1, kappa, L234A L235A, N297A, name in Kabat numbering)
light: B1 light with I58Y
heavy: B1 heavy
chain: B1 chain
B10: GLS3000 Q90P one-arm antibody (antibody, human IgG1, kappa, L234A L235A, N297A, name in Kabat numbering)
light: B1 light with I58N, Q95P
heavy: B1 heavy
chain: B1 chain
B11: GLS3000 Q90E one-arm antibody (antibody, human IgG1, kappa, L234A L235A, N297A, name in Kabat numbering)
light: B1 light with I58N, Q95E
heavy: B1 heavy
chain: B1 chain
B12: GLS3000 P95E one-arm antibody (antibody, human IgG1, kappa, L234A L235A, N297A, name in Kabat numbering)
light: B1 light with I58N, P100E
heavy: B1 heavy
chain: B1 chain
B13: GLS3000 N53Q one-arm antibody (antibody, human IgG1, kappa, L234A L235A, N297A, name in Kabat numbering)
light: B1 light with I58Q
heavy: B1 heavy
chain: B1 chain
B14: GLS3000 N53L one-arm antibody (antibody, human IgG1, kappa, L234A L235A, N297A, name in Kabat numbering)
light: B1 light with I58L
heavy: B1 heavy
chain: B1 chain
B15: GLS3000 P95D one-arm antibody (antibody, human IgG1, kappa, L234A L235A, N297A, name in Kabat numbering)
light: B1 light with I58N, P100D
heavy: B1 heavy
chain: B1 chain
B16: GLS3000 P95A one-arm antibody (antibody, human IgG1, kappa, L234A L235A, N297A, name in Kabat numbering)
light: B1 light with I58N, P100A
heavy: B1 heavy
chain: B1 chain
B17: GLS3000 N53P one-arm antibody (antibody, human IgG1, kappa, L234A L235A, N297A, name in Kabat numbering)
light: B1 light with I58P
heavy: B1 heavy
chain: B1 chain
B18: GLS3000 P95G one-arm antibody (antibody, human IgG1, kappa, L234A L235A, N297A, name in Kabat numbering)
light: B1 light with I58N, P100G
heavy: B1 heavy
chain: B1 chain
B19: GLS3000 N53M one-arm antibody (antibody, human IgG1, kappa, L234A L235A, N297A, name in Kabat numbering)
light: B1 light with I58M
heavy: B1 heavy
chain: B1 chain
B20: GLS3000 N53R one-arm antibody (antibody, human IgG1, kappa, L234A L235A, N297A, name in Kabat numbering)
light: B1 light with I58R
heavy: B1 heavy
chain: B1 chain
B21: GLS3000 P95L one-arm antibody (antibody, human IgG1, kappa, L234A L235A, N297A, name in Kabat numbering)
light: B1 light with I58N, P100L
heavy: B1 heavy
chain: B1 chain
B22: GLS3000 Q90A one-arm antibody (antibody, human IgG1, kappa, L234A L235A, N297A, name in Kabat numbering)
light: B1 light with I58N, Q95A
heavy: B1 heavy
chain: B1 chain

Changes are numbered by the printed parent chain. Names and notes keep the numbering of the source.

T1 sequence (P07766 23-126): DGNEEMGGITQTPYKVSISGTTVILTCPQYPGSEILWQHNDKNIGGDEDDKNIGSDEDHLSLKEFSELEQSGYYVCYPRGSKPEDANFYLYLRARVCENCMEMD

This assay has as its target T1, CD3 epsilon homodimer protein (UniProt P07766 23-126).
T1 construct: Construct of the homodimer is not described; also called CD3 (CD3 epsilon)
Kind of assay: SPR Biacore T200, CD3e homodimer on chip, antibody analyte.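 Further: CD3 epsilon homodimer amine-coupled on CM4 sensor chip, antibodies injected as analyte at 25 °C in HBS-EP+, ratio ≥0.8 taken as binding retained versus unaltered parent antibody.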
In the case of B1, the “ratio of amounts bound (altered form/GLS3000)” value was 0.5. For the molecule B2, the “ratio of amounts bound (altered form/GLS3000)” value was 0.43. To B3 belongs 0.81; to B4, 0.69.

For B5, the “ratio of amounts bound (altered form/GLS3000)” value was 0.56. To B6 belongs 0.19. To B7 belongs 1.08; to B8, 0.56; to B9, 0.67. For the molecule B10, the “ratio of amounts bound (altered form/GLS3000)” value came out at 0.27. As for B11, the figure is 0.86; as for B12, 0.39; as for B13, 0.77. As for B14, the figure is 0.56. As for B15, the figure is 0.24; as for B16, 0.63; as for B17, 0.81.

On to B18, for which the “ratio of amounts bound (altered form/GLS3000)” value is 0.37. To B19 belongs 0.62; to B20, 1.58.

Regarding B21, the “ratio of amounts bound (altered form/GLS3000)” value was 0.24. To B22 belongs 0.5.
